Results as given in publication PMC13199644, “Optimized Quantitative Bacterial Two-Hybrid (qB2H) for Protein–Protein Interaction Assessment” (Computational and Structural Biotechnology Journal, 2026).

Tested on: Spo22p
Test: qB2H v3 fluorescence, Spo22p vs ECM11
Assay type: cell-based, Saccharomyces cerevisiae
Details: Acella, qB2H v3, cI-Spo22p 786-886, IPTG(200µM) + ATC (200ng/mL)
Description: Precultures of untransformed (for intrinsic fluorescence evaluation) and transformed SB39 cells were diluted (3 μl into 300 μl of fresh medium) in 2-ml microtubes and grown in ThermoMixer C (Eppendorf; 37 °C at 900 rpm) for 2 h. Cultures with an OD600 of approximately 0.5 were then mixed with 100 μl of the same medium containing 4× inducer concentration. […] The induced cultures were grown overnight at 18 °C, diluted (1 μl) in freshly filtered (0.22 μm) phosphate-buffered saline buffer (1 ml per OD unit), and analyzed using guava easyCyte HT (488-nm blue laser). The gating for event analysis was set to minimize background noise (fewer than 100 gated events per 10 μl of sterile phosphate-buffered saline). Ten thousand events were collected per culture, and the MFI was recorded. To allow comparison across independent experiments, SB39 cells cotransformed with VN519 (pBRα-rpoA-ip3_mut3A) and VN550 (pAC-cI_E34P-ASF1A_Term_f1-pOL2-62_L-eGFP-KanR) or VN517 (pBRα-rpoA-ip3) and VN550 were included as internal controls. […]
MFI(x) represents the MFI of a given condition or culture. MFI(low) corresponds to the fluorescence produced by SB39 cells cotransformed with VN519 and VN550, indicating no detectable interaction (Kd > 100,000 nM). […]
Interactions involving distinct protein domains and folding variants were assessed using qB2H systems v1, v2, and v3. […]

B1: ECM11: Q04110 1-302, Saccharomyces cerevisiae (protein, UniProt Q04110 1-302, looked up)
Protein ECM11: MTVIKTEPTTEVTLYSPPSKESLSKDDAHRKKQNNKPPSSINSRSGPNKHKLAAKAPEKKINNTDKQDLSAFLLNPSLIVKPSESKKKENIVAYNDTPGIKTEHTAFQPLTPISKKRALKEKAASEKCDSFDLSRDEKPYIQKKSKTLSSVTEINSSEYKLSLNGENTSSPAKEKSQEPIENPGSYQKTRNYLFEKPDPLDTCLQDYSSMLPSNVAEEDQEYFISVADSTLEEWTNKGQEIIDQQFQLYQEIIKKRIELSYKFKGIISVINDRADALEEQGQQLEGKIKKVKTLANEILNII
  Norm. MFI: 7.70%
